In PMC9071432:

Target: sg-Tu-Ts_dCC (Escherichia coli) (UniProt P0A6P1+P0CE48)
Experiment: EMSA
Conditions: 10 mM Mg2+; printed >>30; none (in vitro transcript); EMSA: 50 mM Tris-Cl pH 7.4, 10 mM MgCl2, 50 mM NaCl, 10 mM b-ME, 10% glycerol, 37C 10 min, gel at ~25C; pull-down: Tu-GTP preincubated in 50 mM Tris-Cl pH 7.0 …

UniProt P0A6P1, sequence (P0A6P1 whole entry, chain 1 of 2): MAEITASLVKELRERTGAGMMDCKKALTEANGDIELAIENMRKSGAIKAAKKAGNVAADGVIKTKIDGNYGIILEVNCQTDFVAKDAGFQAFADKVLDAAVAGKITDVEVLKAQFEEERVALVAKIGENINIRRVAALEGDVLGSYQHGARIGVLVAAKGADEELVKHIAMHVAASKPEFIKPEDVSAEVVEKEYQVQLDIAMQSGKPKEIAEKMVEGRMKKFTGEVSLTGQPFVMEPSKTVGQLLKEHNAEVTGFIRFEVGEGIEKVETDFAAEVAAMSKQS
UniProt P0A6P1, sequence (P0CE48 whole entry, chain 2 of 2): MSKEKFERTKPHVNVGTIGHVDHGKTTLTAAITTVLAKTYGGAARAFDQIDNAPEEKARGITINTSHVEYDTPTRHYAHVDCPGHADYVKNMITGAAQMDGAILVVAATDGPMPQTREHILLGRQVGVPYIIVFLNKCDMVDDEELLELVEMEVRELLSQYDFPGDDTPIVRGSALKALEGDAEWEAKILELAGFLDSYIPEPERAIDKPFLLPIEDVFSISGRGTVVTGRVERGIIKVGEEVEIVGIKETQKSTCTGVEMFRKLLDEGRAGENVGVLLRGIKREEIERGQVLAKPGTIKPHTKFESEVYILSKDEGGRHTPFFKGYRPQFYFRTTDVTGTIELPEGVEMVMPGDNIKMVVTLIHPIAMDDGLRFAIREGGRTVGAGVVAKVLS

Sequence: UGGGGUAUCGCCAAGCGGUAAGGCACCGGAUUCUGAUUCCGGCAUUCCGAGGUUCGAAUCCUCGUACCCCAGCCA [tRNAGln transcript (U1-A72, wt), uncharged]
- Kd: > 30 µM
